Assay in all cases: SPR, Biacore T200; Ab captured on Human Fab Binder, complex injected; pH 7.4, 25 C
The target of assay [1] is T1, human ANGPTL3/8 complex (human, UniProt Q9Y5C1 17-460; Q6UXH0 22-198, limits assumed).
T1 construct: also called hANGPTL3/8 complex; ANGTPL3/8 complex
T1 sequence 1: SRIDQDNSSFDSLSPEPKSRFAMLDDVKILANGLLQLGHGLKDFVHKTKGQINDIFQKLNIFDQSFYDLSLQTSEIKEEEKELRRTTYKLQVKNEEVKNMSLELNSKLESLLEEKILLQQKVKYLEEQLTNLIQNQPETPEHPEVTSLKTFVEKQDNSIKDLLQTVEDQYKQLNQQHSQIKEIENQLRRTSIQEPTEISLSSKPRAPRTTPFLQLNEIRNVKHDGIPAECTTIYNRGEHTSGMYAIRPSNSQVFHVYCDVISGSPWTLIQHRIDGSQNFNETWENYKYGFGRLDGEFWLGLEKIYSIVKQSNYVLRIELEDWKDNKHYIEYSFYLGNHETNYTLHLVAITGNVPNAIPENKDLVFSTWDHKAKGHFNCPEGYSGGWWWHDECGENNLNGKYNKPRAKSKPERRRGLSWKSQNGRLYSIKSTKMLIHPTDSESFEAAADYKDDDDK
T1 sequence 2: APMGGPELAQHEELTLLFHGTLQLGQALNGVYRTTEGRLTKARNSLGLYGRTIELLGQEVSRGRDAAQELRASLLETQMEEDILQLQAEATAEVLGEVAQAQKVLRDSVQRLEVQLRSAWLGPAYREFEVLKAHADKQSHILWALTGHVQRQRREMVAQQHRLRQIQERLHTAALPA

Assay [2] concerns the target T2, cynomolgus ANGPTL3/8 complex (cynomolgus, UniProt A0A2K5UDC5 17-460; A0A2K5WWS3 22-198).
T2 construct: also called cyno ANGPTL3/8
T2 sequence 1: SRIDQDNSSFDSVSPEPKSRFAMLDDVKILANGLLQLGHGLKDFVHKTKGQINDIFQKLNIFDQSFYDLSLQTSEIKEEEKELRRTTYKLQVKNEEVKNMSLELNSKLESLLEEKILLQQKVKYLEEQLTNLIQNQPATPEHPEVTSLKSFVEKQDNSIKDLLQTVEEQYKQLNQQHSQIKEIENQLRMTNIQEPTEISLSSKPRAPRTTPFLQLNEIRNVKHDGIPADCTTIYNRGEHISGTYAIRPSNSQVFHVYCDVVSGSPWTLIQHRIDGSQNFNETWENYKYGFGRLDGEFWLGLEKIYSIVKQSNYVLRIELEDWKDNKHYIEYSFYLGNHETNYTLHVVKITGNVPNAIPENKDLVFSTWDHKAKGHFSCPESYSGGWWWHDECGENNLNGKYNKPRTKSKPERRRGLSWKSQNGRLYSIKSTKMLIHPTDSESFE
T2 sequence 2: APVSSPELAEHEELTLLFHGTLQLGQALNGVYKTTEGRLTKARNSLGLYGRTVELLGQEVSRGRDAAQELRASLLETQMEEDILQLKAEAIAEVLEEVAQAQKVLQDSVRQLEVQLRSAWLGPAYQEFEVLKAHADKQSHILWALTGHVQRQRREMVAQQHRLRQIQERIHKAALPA

Assay [3] concerns the target T3, mouse ANGPTL3/8 complex (mouse, UniProt Q9R182 17-455; Q8R1L8 16-198, limits assumed).
T3 sequence (looked up) 1: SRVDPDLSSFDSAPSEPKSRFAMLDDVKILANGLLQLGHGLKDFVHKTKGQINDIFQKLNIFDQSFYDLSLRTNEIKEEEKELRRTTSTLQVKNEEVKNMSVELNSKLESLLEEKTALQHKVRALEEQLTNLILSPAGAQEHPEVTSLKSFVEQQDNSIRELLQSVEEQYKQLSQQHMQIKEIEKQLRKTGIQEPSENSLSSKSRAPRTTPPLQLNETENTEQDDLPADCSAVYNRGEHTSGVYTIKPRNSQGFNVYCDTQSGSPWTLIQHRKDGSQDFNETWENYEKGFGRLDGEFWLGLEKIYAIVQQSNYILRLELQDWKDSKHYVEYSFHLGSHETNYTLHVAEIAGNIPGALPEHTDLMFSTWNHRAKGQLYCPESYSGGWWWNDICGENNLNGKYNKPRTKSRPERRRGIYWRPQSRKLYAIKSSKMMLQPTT
T3 sequence (looked up) 2: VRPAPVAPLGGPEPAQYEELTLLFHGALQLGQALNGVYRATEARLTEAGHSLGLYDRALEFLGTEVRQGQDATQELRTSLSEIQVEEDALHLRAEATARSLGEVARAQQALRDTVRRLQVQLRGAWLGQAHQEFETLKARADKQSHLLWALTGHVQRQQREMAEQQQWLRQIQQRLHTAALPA

Assay [4] has as its target T1, human ANGPTL3/8 complex. The source holds these as a separate data set.
Assay [5] deals with T2, cynomolgus ANGPTL3/8 complex. This is another data set of the same source.
Assay [6] addresses T3, mouse ANGPTL3/8 complex. This is another data set of the same source.
The target of assay [7] is T2, cynomolgus ANGPTL3/8 complex. This is another data set of the same source.
For assay [8], the target named is T3, mouse ANGPTL3/8 complex. This is another data set of the same source.

The results in this text go back to patent US20200199213A1 (Eli Lilly, published 2020).

Where two headings read alike, the source gives them in different places.

B1: Ab with LC variant having a D31S mutation (SEQ ID NO:21) and a HC of SEQ ID NO:6 (antibody, human IgG4 S228P, kappa, F234A L235A, V domains shown)
VH: QVTLKESGPTLVKPTQTLTLTCTFSGFSLSISGVGVGWIRQPPGKALEWLALIYRNDDKRYSPSLKSRLTITKDTSKNQVVLTLTNMDPVDTATYYCARTYSSGWYGNWFDPWGQGTLVTVSS
VL: DIVMTQTPLSLPVTPGEPASISCRSSQSLLSSDDGNTYLDWYLQKPGQSPQLLIYMLSYRASGVPDRFSGSGSGTDFTLKISRVEAEDVGIYYCMQRIEFPLTFGGGTKVEIKR
notes: also called D31S Variant Ab; D31S Ab
Usually Kd stands for the equilibrium constant for the complex coming apart. As usually defined, the koff is the first-order rate constant of dissociation. As usually defined, the kon is the rate constant with which the complex forms. Regarding B1, in assay [1], binding was characterised by a dissociation constant (Kd) of 0.116 nM, the koff stood at 5.75e-05 s⁻¹ and the kon is 497000 M⁻¹ s⁻¹. In assay [2], this molecule registered a Kd of 0.365 nM, a koff of 0.000168 s⁻¹ and a kon of 462000 M⁻¹ s⁻¹. In assay [3], this molecule yielded a Kd of 0.218 nM, a koff of 0.000108 s⁻¹ and an on-rate (kon) of 496000 M⁻¹ s⁻¹.

B2: Ab with LC variant having a D33A mutation (SEQ ID NO:22) and a HC of SEQ ID NO:6 (antibody, human IgG4 S228P, kappa, F234A L235A, V domains shown)
VH: QVTLKESGPTLVKPTQTLTLTCTFSGFSLSISGVGVGWIRQPPGKALEWLALIYRNDDKRYSPSLKSRLTITKDTSKNQVVLTLTNMDPVDTATYYCARTYSSGWYGNWFDPWGQGTLVTVSS
VL: DIVMTQTPLSLPVTPGEPASISCRSSQSLLDSADGNTYLDWYLQKPGQSPQLLIYMLSYRASGVPDRFSGSGSGTDFTLKISRVEAEDVGIYYCMQRIEFPLTFGGGTKVEIKR
notes: also called D33A Variant Ab; D33A Ab
On to B2, for which, in assay [4], the Kd came to 0.201 nM, the koff came out at 9.19e-05 s⁻¹ and the on-rate constant (kon) amounted to 457000 M⁻¹ s⁻¹. Moreover, in assay [5], the dissociation constant (Kd) amounted to 0.609 nM, the koff amounted to 0.000265 s⁻¹ and the on-rate (kon) turned out to be 435000 M⁻¹ s⁻¹. In addition, in assay [6], the Kd amounted to 0.68 nM, the koff was 0.000347 s⁻¹ and the kon amounted to 515000 M⁻¹ s⁻¹.

B3: Ab with LC variant having a E99Q mutation (SEQ ID NO:25) and a HC of SEQ ID NO:6 (antibody, human IgG4 S228P, kappa, F234A L235A, V domains shown)
VH: QVTLKESGPTLVKPTQTLTLTCTFSGFSLSISGVGVGWIRQPPGKALEWLALIYRNDDKRYSPSLKSRLTITKDTSKNQVVLTLTNMDPVDTATYYCARTYSSGWYGNWFDPWGQGTLVTVSS
VL: DIVMTQTPLSLPVTPGEPASISCRSSQSLLDSDDGNTYLDWYLQKPGQSPQLLIYMLSYRASGVPDRFSGSGSGTDFTLKISRVEAEDVGIYYCMQRIQFPLTFGGGTKVEIKR
notes: also called E99Q Variant Ab; E99Q Ab
On to B3, for which, in assay [7], the equilibrium dissociation constant (Kd) stood at 0.116 nM, the koff stood at 7.23e-05 s⁻¹ and the kon worked out at 620000 M⁻¹ s⁻¹. Also, in assay [8], the Kd came to 0.254 nM, the dissociation rate constant (koff) was 0.000151 s⁻¹ and the kon turned out to be 596000 M⁻¹ s⁻¹.
